Consider 14 molecules from US12099068B2, “Biomarkers for graft-versus-host disease” (Incyte Corporation, priority 2018, dated 2024).

First the molecules themselves.
B1: ANG-1 (protein, UniProt Q15389 16-498, looked up)
Angiopoietin-1: HIGCSNQRRSPENSGRRYNRIQHGQCAYTFILPEHDGNCRESTTDQYNTNALQRDAPHVEPDFSSQKLQHLEHVMENYTQWLQKLENYIVENMKSEMAQIQQNAVQNHTATMLEIGTSLLSQTAEQTRKLTDVETQVLNQTSRLEIQLLENSLSTYKLEKQLLQQTNEILKIHEKNSLLEHKILEMEGKHKEELDTLKEEKENLQGLVTRQTYIIQELEKQLNRATTNNSVLQKQQLELMDTVHNLVNLCTKEGVLLKGGKREEEKPFRDCADVYQAGFNKSGIYTIYINNMPEPKKVFCNMDVNGGGWTVIQHREDGSLDFQRGWKEYKMGFGNPSGEYWLGNEFIFAITSQRQYMLRIELMDWEGNRAYSQYDRFHIGNEKQNYRLYLKGHTGTAGKQSSLILHGADFSTKDADNDNCMCKCALMLTGGWWFDACGPSNLNGMFYTAGQNHGKLNGIKWHYFKGPSYSLRSTTMMIRPLDF
B2: STX6 (protein, UniProt O43752 2-255, looked up)
Syntaxin-6: SMEDPFFVVKGEVQKAVNTAQGLFQRWTELLQDPSTATREEIDWTTNELRNNLRSIEWDLEDLDETISIVEANPRKFNLDATELSIRKAFITSTRQVVRDMKDQMSTSSVQALAERKNRQALLGDSGSQNWSTGTTDKYGRLDRELQRANSHFIEEQQAQQQLIVEQQDEQLELVSGSIGVLKNMSQRIGGELEEQAVMLEDFSHELESTQSRLDNVMKKLAKVSHMTSDRRQWCAIAILFAVLLVVLILFLVL
B3: IRAK1 (protein, UniProt P51617 1-712, looked up)
Interleukin-1 …: MAGGPGPGEPAAPGAQHFLYEVPPWVMCRFYKVMDALEPADWCQFAALIVRDQTELRLCERSGQRTASVLWPWINRNARVADLVHILTHLQLLRARDIITAWHPPAPLPSPGTTAPRPSSIPAPAEAEAWSPRKLPSSASTFLSPAFPGSQTHSGPELGLVPSPASLWPPPPSPAPSSTKPGPESSVSLLQGARPFPFCWPLCEISRGTHNFSEELKIGEGGFGCVYRAVMRNTVYAVKRLKENADLEWTAVKQSFLTEVEQLSRFRHPNIVDFAGYCAQNGFYCLVYGFLPNGSLEDRLHCQTQACPPLSWPQRLDILLGTARAIQFLHQDSPSLIHGDIKSSNVLLDERLTPKLGDFGLARFSRFAGSSPSQSSMVARTQTVRGTLAYLPEEYIKTGRLAVDTDTFSFGVVVLETLAGQRAVKTHGARTKYLKDLVEEEAEEAGVALRSTQSTLQAGLAADAWAAPIAMQIYKKHLDPRPGPCPPELGLGLGQLACCCLHRRAKRRPPMTQVYERLEKLQAVVAGVPGHSEAASCIPPSPQENSYVSSTGRAHSGAAPWQPLAAPSGASAQAAEQLQRGPNQPVESDESLGGLSAALRSWHLTPSCPLDPAPLREAGCPQGDTAGESSWGSGPGSRPTAVEGLALGSSASSSSEPPQIIINPARQKMVQKLALYEDGALDSLQLLSSSSLPGLGLEQDRQGPEESDEFQS
B4: CCL5 (protein, UniProt P13501 24-91, looked up)
C-C motif chemokine 5: SPYSSDTTPCCFAYIARPLPRAHIKEYFYTSGKCSNPAVVFVTRKNRQVCANPEKKWVREYINSLEMS
B5: PILRA (protein, UniProt Q9UKJ1 20-303, looked up)
Paired immunoglobulin-like …: QPSGSTGSGPSYLYGVTQPKHLSASMGGSVEIPFSFYYPWELATAPDVRISWRRGHFHRQSFYSTRPPSIHKDYVNRLFLNWTEGQKSGFLRISNLQKQDQSVYFCRVELDTRSSGRQQWQSIEGTKLSITQAVTTTTQRPSSMTTTWRLSSTTTTTGLRVTQGKRRSDSWHISLETAVGVAVAVTVLGIMILGLICLLRWRRRKGQQRTKATTPAREPFQNTEEPYENIRNEGQNTDPKLNPKDDGIVYASLALSSSTSPRAPPSHRPLKSPQNETLYSVLKA
B6: ESM-1 (protein, UniProt Q9NQ30 20-184, looked up)
Endothelial cell-specific …: WSNNYAVDCPQHCDSSECKSSPRCKRTVLDDCGCCRVCAAGRGETCYRTVSGMDGMKCGPGLRCQPSNGEDPFGEEFGICKDCPYGTFGMDCRETCNCQSGICDRGTGKCLKFPFFQYSVTKSSNRFVSLTEHDMASGDGNIVREEVVKENAAGSPVMRKWLNPR
B7: CRKL (protein, UniProt P46109 1-303, looked up)
Crk-like protein: MSSARFDSSDRSAWYMGPVSRQEAQTRLQGQRHGMFLVRDSSTCPGDYVLSVSENSRVSHYIINSLPNRRFKIGDQEFDHLPALLEFYKIHYLDTTTLIEPAPRYPSPPMGSVSAPNLPTAEDNLEYVRTLYDFPGNDAEDLPFKKGEILVIIEKPEEQWWSARNKDGRVGMIPVPYVEKLVRSSPHGKHGNRNSNSYGIPEPAHAYAQPQTTTPLPAVSGSPGAAITPLPSTQNGPVFAKAIQKRVPCAYDKTALALEVGDIVKVTRMNINGQWEGEVNGRKGLFPFTHVKIFDPQNPDENE
B8: PPP1R2 (protein, UniProt P41236 2-205, looked up)
Protein phosphatase inhibitor …: AASTASHRPIKGILKNKTSTTSSMVASAEQPRGNVDEELSKKSQKWDEMNILATYHPADKDYGLMKIDEPSTPYHSMMGDDEDACSDTEATEAMAPDILARKLAAAEGLEPKYRIQEQESSGEEDSDLSPEEREKKRQFEMKRKLHYNEGLNIKLARQLISKDLHDDDEDEEMLETADGESMNTEESNQGSTPSDQQQNKLRSS
B9: MAP2K6 (protein, UniProt P52564 1-334, looked up)
Dual specificity …: MSQSKGKKRNPGLKIPKEAFEQPQTSSTPPRDLDSKACISIGNQNFEVKADDLEPIMELGRGAYGVVEKMRHVPSGQIMAVKRIRATVNSQEQKRLLMDLDISMRTVDCPFTVTFYGALFREGDVWICMELMDTSLDKFYKQVIDKGQTIPEDILGKIAVSIVKALEHLHSKLSVIHRDVKPSNVLINALGQVKMCDFGISGYLVDSVAKTIDAGCKPYMAPERINPELNQKGYSVKSDIWSLGITMIELAILRFPYDSWGTPFQQLKQVVEEPSPQLPADKFSAEFVDFTSQCLKKNSKERPTYPELMQHPFFTLHESKGTDVASFVKLILGD
B10: PRTN3 (protein, UniProt P24158 28-248, looked up)
Myeloblastin: IVGGHEAQPHSRPYMASLQMRGNPGSHFCGGTLIHPSFVLTAAHCLRDIPQRLVNVVLGAHNVRTQEPTQQHFSVAQVFLNNYDAENKLNDVLLIQLSSPANLSASVATVQLPQQDQPVPHGTQCLAMGWGRVGAHDPPAQVLQELNVTVVTFFCRPHNICTFVPRRKAGICFGDSGGPLICDGIIQGIDSFVIWGCATRLFPDFFTRVALYVDWIRSTLR
B11: IL-5R-alpha (protein, UniProt Q01344 21-420, looked up)
Interleukin-5 receptor …: DLLPDEKISLLPPVNFTIKVTGLAQVLLQWKPNPDQEQRNVNLEYQVKINAPKEDDYETRITESKCVTILHKGFSASVRTILQNDHSLLASSWASAELHAPPGSPGTSIVNLTCTTNTTEDNYSRLRSYQVSLHCTWLVGTDAPEDTQYFLYYRYGSWTEECQEYSKDTLGRNIACWFPRTFILSKGRDWLAVLVNGSSKHSAIRPFDQLFALHAIDQINPPLNVTAEIEGTRLSIQWEKPVSAFPIHCFDYEVKIHNTRNGYLQIEKLMTNAFISIIDDLSKYDVQVRAAVSSMCREAGLWSEWSQPIYVGNDEHKPLREWFVIVIMATICFILLILSLICKICHLWIKLFPPIPAPKSNIKDLFVTTNYEKAGSSETEIEVICYIEKPGVETLEDSVF
B12: STX16 (protein, UniProt O14662 1-325, looked up)
Syntaxin-16: MATRRLTDAFLLLRNNSIQNRQLLAEQVSSHITSSPLHSRSIAAELDELADDRMALVSGISLDPEAAIGVTKRPPPKWVDGVDEIQYDVGRIKQKMKELASLHDKHLNRPTLDDSSEEEHAIEITTQEITQLFHRCQRAVQALPSRARACSEQEGRLLGNVVASLAQALQELSTSFRHAQSGYLKRMKNREERSQHFFDTSVPLMDDGDDNTLYHRGFTEDQLVLVEQNTLMVEEREREIRQIVQSISDLNEIFRDLGAMIVEQGTVLDRIDYNVEQSCIKTEDGLKQLHKAEQYQKKNRKMLVILILFVIIIVLIVVLVGVKSR
B13: SMOC2 (protein, UniProt Q9H3U7 22-446, looked up)
SPARC-related modular …: QKFSALTFLRVDQDKDKDCSLDCAGSPQKPLCASDGRTFLSRCEFQRAKCKDPQLEIAYRGNCKDVSRCVAERKYTQEQARKEFQQVFIPECNDDGTYSQVQCHSYTGYCWCVTPNGRPISGTAVAHKTPRCPGSVNEKLPQREGTGKTDDAAAPALETQPQGDEEDIASRYPTLWTEQVKSRQNKTNKNSVSSCDQEHQSALEEAKQPKNDNVVIPECAHGGLYKPVQCHPSTGYCWCVLVDTGRPIPGTSTRYEQPKCDNTARAHPAKARDLYKGRQLQGCPGAKKHEFLTSVLDALSTDMVHAASDPSSSSGRLSEPDPSHTLEERVVHWYFKLLDKNSSGDIGKKEIKPFKRFLRKKSKPKKCVKKFVEYCDVNNDKSISVQELMGCLGVAKEDGKADTKKRHTPRGHAESTSNRQPRKQG
B14: DFFA (protein, UniProt O00273 1-331, looked up)
DNA fragmentation factor …: MEVTGDAGVPESGEIRTLKPCLLRRNYSREQHGVAASCLEDLRSKACDILAIDKSLTPVTLVLAEDGTIVDDDDYFLCLPSNTKFVALASNEKWAYNNSDGGTAWISQESFDVDETDSGAGLKWKNVARQLKEDLSSIILLSEEDLQMLVDAPCSDLAQELRQSCATVQRLQHTLQQVLDQREEVRQSKQLLQLYLQALEKEGSLLSKQEESKAAFGEEVDAVDTGISRETSSDVALASHILTALREKQAPELSLSSQDLELVTKEDPKALAVALNWDIKKTETVQEACERELALRLQQTQSLHSLRSISASKASPPGDLQNPKRARQDPT

The assay has as its system plasma proteins. Description: Plasma proteins modulated between baseline and day 28 in responders (CR, VGPR, PR; n = 19), Example 6 (Table 13). It counts as in vivo, human. The following applies: plasma protein (OLINK NPX); responders (CR, VGPR, PR; n = 19); itacitinib 200 mg or 300 mg QD with corticosteroids; day 28 vs baseline. The method, then: Due to the limited sample size, steroid-naive (N=10) and steroid-refractory (N=18) patients were combined for further analysis. Broad proteomic analysis of over 1000 proteins was conducted by OLINK Proteomics (Watertown, MA) using a proximity extension assay as described by the manufacturer. Data are presented as normalized protein expression (NPX) in log 2 scale. Statistical differences were evaluated using unpaired and paired t tests, one-way […] (ANOVA), and Pearson Correlation. Significance was conferred when P<0.05.
Longitudinal differences in protein expression were analyzed by evaluating plasma samples from baseline/screening and day 28.
B1: the “Fold Change, Decreased Expression from Baseline to Day 28” value (“Fold Change, Decreased Expression” for short) was −1.7898.

Regarding B2, the “Fold Change, Decreased Expression” value is listed as −1.4715.

As to B3, the “Fold Change, Decreased Expression” value was −1.2986.

As to B4, the “Fold Change, Decreased Expression” value is reported as −1.6357.

Turning to B5, the “Fold Change, Decreased Expression” value is −1.2582.

For the molecule B6, the “Fold Change, Decreased Expression” value is reported as −1.4178.

In the case of B7, the “Fold Change, Decreased Expression” value is on record as −1.8003.

On to B8, for which the “Fold Change, Decreased Expression” value is on record as −1.3339.

B9: the “Fold Change, Decreased Expression” value is given as −1.8184.

B10: the “Fold Change, Decreased Expression” value is reported as −1.7658.

In the case of B11, the “Fold Change, Decreased Expression” value is −1.6599.

In the case of B12, the “Fold Change, Decreased Expression” value is recorded as −1.4673.

B13: the “Fold Change, Increased Expression from Baseline to Day 28” value is 1.2842.

As for B14, the “Fold Change, Decreased Expression” value is −1.31.
